# Source: patent US20220288216A1 (STARPHARMA, published 2022)
# How the values were obtained:
# [1] = molecular target: T1, HER2 (human epidermal growth factor receptor 2) on cells (human, UniProt P04626 23-1255); experiment: flow cytometry (Cy5), MDA-MB-231/HER2 cells, 3.33 nM, 37 C, 24 h
# T1 construct: whole, on cells; One molecule for HER2 on all HER2-positive human cell lines; also called ERBB2; HER2 WT
# [2] = molecular target: T1, HER2 (human epidermal growth factor …); experiment: flow cytometry (Cy5), SKOV-3 cells, 3.33 nM, 37 C, 24 h
# [3] = molecular target: T1, HER2 (human epidermal growth factor …); experiment: flow cytometry (Cy5), MDA-MB-231/HER2 cells, 0.5 h
"cellular association value (legend says percent; value exceeds 100, unit unclear) [3]",Binder,also measured
–,"Nanobody-PEG2-TCO-MePhTz-PEG4-PEG24-CO[N(PN)2][Lys]8[(α-NH-Cy5)1(α-NH-Glu-VC-PAB-MMAE)7(ε-NH-COPEG1100)8], Compound 41 (VHH, C-terminal unnatural amino acid (# in the printed sequence; p-azido-phenylalanine) clicked to DBCO-PEG12-TCO and through it to the tetrazine G3 lysine dendrimer carrying Cy5, Glu-VC-PAB-MMAE and PEG1100, Anti-HER2 nanobody 2D3 conjugated to a G3 dendrimer; also called compound 41 (targeted); targeted dendrimer) VHH: EVQLVESGGSLVQPGGSLRLSCAASGFTFDDYAMSWVRQVPGKGLEWVSSINWSGTHTDYADSVKGRFTISRNNANNTLYLQMNSLKSEDTAVYYCAKNWRDAGTTWFEKSGSAGQGTQVTVSS",fold fluorescence against compound 36 (untargeted control) [1]: ~9 fold; fold fluorescence against compound 36 (untargeted control) [2]: ~16 fold
190,"BHA[Lys]4[((α-NH-COPEG24NH-COPEG4(PhMeTz) TCO-PEG3NH-COPEG24NH-Glu-DBCO N3-Nanobody)1(α-Lys(α-NHCy5)(ε-NHDFO))1(α-NH2)2)(ε-NH-COPEG1000)4, G2, Compound 86 (VHH, unnatural amino acid (#; p-azido-phenylalanine) clicked to DBCO-Glu-NHPEG24CO-NHPEG3-TCO and through it to the tetrazine G2 BHA-lysine dendrimer carrying Cy5, DFO and PEG1000, Single-nanobody G2 conjugate; also called BHA-G2-PEG1000 + NB) VHH: EVQLVESGGSLVQPGGSLRLSCAASGFTFDDYAMSWVRQVPGKGLEWVSSINWSGTHTDYADSVKGRFTISRNNANNTLYLQMNSLKSEDTAVYYCAKNWRDAGTTWFEKSGSAGQGTQVTVSS",–
165,"BHA[Lys]32[((α-NH-COPEG24NH-COPEG4(PhMeTz) TCO-PEG3NH-COPEG24NH-Glu-DBCO/N3-Nanobody)1(α-Lys(α-NHCy5)(ε-NHDFO))1(α-NH2)30(ε-NH-COPEG1100)32], G5, Compound 92 (VHH, unnatural amino acid (#; p-azido-phenylalanine) clicked to DBCO-Glu-NHPEG24CO-NHPEG3-TCO and through it to the tetrazine G5 BHA-lysine dendrimer carrying Cy5, DFO and PEG, Single-nanobody G5 conjugate; also called BHA-G5-PEG1000 + NB) VHH: EVQLVESGGSLVQPGGSLRLSCAASGFTFDDYAMSWVRQVPGKGLEWVSSINWSGTHTDYADSVKGRFTISRNNANNTLYLQMNSLKSEDTAVYYCAKNWRDAGTTWFEKSGSAGQGTQVTVSS",–
–,"BHA[Lys]32[((α-NH-COPEG24NH-COPEG4(PhMeTz) TCO-PEG3NH-COPEG24NH-Glu-DBCO/N3-Nanobody)1-4(α-NHCy5)1(α-NH-COPEG9-Val-Ala-PAB-P-Trigger-NMeCO-CTX)22) (α-NH2)5-8 … (VHH, unnatural amino acid (# in the printed sequence; p-azido-phenylalanine) after the last nanobody residue clicked to DBCO-Glu-NHPEG24CO-NHPEG3-TCO and through it to the tetrazine G5 BHA-lysine dendrimer carrying Cy5, cabazitaxel and PEG1100, 1-4 nanobodies per dendrimer as printed; also called compound 78 (targeted); 78 (2D3, G5, PEG1000, CTX)) VHH: EVQLVESGGSLVQPGGSLRLSCAASGFTFDDYAMSWVRQVPGKGLEWVSSINWSGTHTDYADSVKGRFTISRNNANNTLYLQMNSLKSEDTAVYYCAKNWRDAGTTWFEKSGSAGQGTQVTVSS",fold fluorescence against compound 70 (untargeted control) [1]: ~340 fold; fold fluorescence against compound 70 (untargeted control) [2]: ~160 fold
157,"BHA[Lys]16[((α-NH-COPEG24NH-COPEG4(PhMeTz) TCO-PEG3NH-COPEG24NH-Glu-DBCO/N3-Nanobody)1(α-Lys(α-NHCy5)(ε-NHDFO))1(α-NH2)14(ε-NH-COPEG1000)16], G4, Compound 90 (VHH, unnatural amino acid (#; p-azido-phenylalanine) clicked to DBCO-Glu-NHPEG24CO-NHPEG3-TCO and through it to the tetrazine G4 BHA-lysine dendrimer carrying Cy5, DFO and PEG1000, Single-nanobody G4 conjugate; also called single 2D3-dendrimer conjugate; MFI Single) VHH: EVQLVESGGSLVQPGGSLRLSCAASGFTFDDYAMSWVRQVPGKGLEWVSSINWSGTHTDYADSVKGRFTISRNNANNTLYLQMNSLKSEDTAVYYCAKNWRDAGTTWFEKSGSAGQGTQVTVSS",–
218,"BHA[Lys]8[((α-NH-COPEG24NH-COPEG4(PhMeTz) TCO-PEG3NH-COPEG24NH-Glu-DBCO/N3-Nanobody)1(α-Lys(α-NHCy5)(ε-NHDFO))1(α-NH2)6)(ε-NH-COPEG1000)8], G3, Compound 89 (VHH, unnatural amino acid (#; p-azido-phenylalanine) clicked to DBCO-Glu-NHPEG24CO-NHPEG3-TCO and through it to the tetrazine G3 BHA-lysine dendrimer carrying Cy5, DFO and PEG1000, Single-nanobody G3 conjugate; also called BHA-G3-PEG1000 + NB) VHH: EVQLVESGGSLVQPGGSLRLSCAASGFTFDDYAMSWVRQVPGKGLEWVSSINWSGTHTDYADSVKGRFTISRNNANNTLYLQMNSLKSEDTAVYYCAKNWRDAGTTWFEKSGSAGQGTQVTVSS",–
